The results in this text go back to paper PMC9530649 (Cancer Immunology Research, 2022).

A word on the EC50: it is the concentration needed to bring the measured effect to its halfway point. A word on the IC50: it is the concentration that gives 50% inhibition. As usually defined, the Kd is a measure of binding affinity in units of concentration.

The chains are these.
B1: recombinant human fibrinogen-like protein-1 (FGL1)–mFc fusion protein (Fc fusion)
chain: LEDCAQEQMRLRAQVRLLETRVKQQQVKIKQLLQENEVQFLDKGDENTVIDLGSKRQYADCSEIFNDGYKLSGFYKIKPLQSPAEFSVYCDMSDGGGWTVIQRRSDGSENFNRGWKDYENGFGNFVQKHGEYWLGNKNLHFLTTQEDYTLKIDLADFEKNSRYAQYKNFKVGDEKNFYELNIGEYSGTAGDSLAGNFHPEVQWWASHQRMKFSTWDRDHDNYEGNCAEEDQSGWWFNRCHSANLNGVYYSGPYTAKTDNGIVWYTWHGWWYSLKSVVMKIRPNDFIPNVI
B2: LAG3.1-G4P (antibody, V domains shown)
VH: QVQLQQWGAGLLKPSETLSLTCAVYGGSFSDYYWNWIRQPPGKGLEWIGEINHNGNTNSNPSLKSRVTLSLDTSKNQFSLKLRSVTAADTAVYYCAFGYSDYEYNWFDPWGQGTLVTVSS
VL: EIVLTQSPATLSLSPGERATLSCRASQSISSYLAWYQQKPGQAPRLLIYDASNRATGIPARFSGSGSGTDFTLTISSLEPEDFAVYYCQQRSNWPLTFGQGTNLEIK
B3: LAG-3.1-G4P-FITC (fluoresceinated LAG3.1-G4P, parent antibody of relatlimab) (antibody, V domains shown)
VH: B2 VH
VL: B2 VL
B4: recombinant human LAG-3–Fc protein (hLAG-3–hFc) (Fc fusion)
chain: LQPGAEVPVVWAQEGAPAQLPCSPTIPLQDLSLLRRAGVTWQHQPDSGPPAAAPGHPLAPGPHPAAPSSWGPRPRRYTVLSVGPGGLRSGRLPLQPRVQLDERGRQRGDFSLWLRPARRADAGEYRAAVHLRDRALSCRLRLRLGQASMTASPPGSLRASDWVILNCSFSRPDRPASVHWFRNRGQGRVPVRESPHHHLAESFLFLPQVSPMDSGPWGCILTYRDGFNVSIMYNLTVLGLEPPTPLTVYAGAGSRVGLPCRLPAGVGTRSFLTAKWTPPGGGPDLLVTGDNGDFTLRLEDVSQAQAGTYTCHIHLQEQQLNATVTLAIITVTPKSFGSPGSLGKLLCEVTPVSGQERFVWSSLDTPSQRSFSGPWLEAQEAQLLSQPWQCQLYQGERLLGAAVYFTELSSPGAQRSGRAPGALPAGHL

Assay [1] addresses cynomolgus monkey LAG-3 (cynomolgus monkey (endogenous in primary CD4+ T cells)). The assay can be described thus: flow cytometry on cells.
The target of assay [2] is full-length human LAG-3 on CHO-S cells (CHO-huLAG-3) (Homo sapiens) (UniProt P18627). Nature of the assay: flow cytometry on cells.
Assay [3] addresses hLAG-3–mFc (Homo sapiens) (UniProt P18627). Nature of the assay: flow cytometry on cells.
Assay [4] has as its target recombinant human LAG-3–Fc protein (hLAG-3–hFc) (human) (UniProt P18627). Nature of the assay: SPR.
Assay [5] has the same target. Nature of the assay: ELISA.
In assay [6] the target is B4. Nature of the assay: BLI. Background: BLI is a label-free optical method that tracks binding on a fibre tip over time.
In assay [7] the target is T1, LAG-3 D1 insertion-loop peptide P60[…]75 (Homo sapiens).
T1 chain: PGPHPAAPSSWGPRPR
The assay can be described thus: ELISA. On the technique in general: In an ELISA, binding on a coated surface is turned into a signal by an enzyme label.

In the next assay the target is native human LAG-3 (Homo sapiens, endogenous, UniProt P18627). The assay can be described thus: immunostaining of cells or tissue.
The target in assay [8] is human LAG-3 fusion protein (used for pre-absorption of LAG-3.1-G4P-FITC) (Homo sapiens, UniProt P18627). Nature of the assay: immunostaining of cells or tissue.
Assay [9] addresses LAG-3 endogenous in normal human pituitary (adenohypophysis) (Homo sapiens, endogenous, UniProt P18627). The assay can be described thus: immunostaining of cells or tissue.
Assay [10] addresses B1. The assay can be described thus: ELISA.

As for relatlimab (antibody), the EC50 was found to be 29.1 nM in assay [1], 1.46 nM in assay [2] and 0.49 nM in [5]. Moreover, the IC50 in assay [3] came out at 0.67 nM; in assay [5], 0.019 nM. In [4], the dissociation constant Kd amounted to 0.12 nM.
relatlimab Fab fragment (Fab 3.5): in assay [4], the dissociation constant Kd is 10 nM.
B1: the Kd in assay [6] was > 1000 nM.
B2 showed an EC50 in assay [7] of 0.44 nM. Moreover, the binding result in the assay with native human LAG-3 is listed as “binds”.
Consider B3, for which the binding result in assay [8] and in assay [9] was “binds” each time.
On to B4, for which the EC50 in assay [10] came out at 0.085 nM.
